# From the supplement of paper PMC10724198
# ± gives the standard deviation of the averaged measurements.
# Test system: Saccharomyces cerevisiae
# Assay: protein stability index of tFT-peptide fusion (C-terminal peptide) (PSI (0-1 scale)); higher = more stable (slower turnover)
# Conditions: genetic background: wild type; temperature: 30 C
# Description: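 Multiplexed protein stability (MPS) profiling in S. cerevisiae. Random 12-aa peptides (tFT-X12 library) are fused to the C-terminus of a sfGFP-mCherry tandem fluorescent timer, after mCherry and a GGGS linker. Cells are FACS-sorted into 8 mCherry/sfGFP bins and deep-sequenced. The protein stability index (PSI) is the read-weighted bin average, scaled from 0 (unstable) to 1 (stable). Only peptides with >10 reads are reported; cells were grown at 30 °C in SC-His with glucose.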
# 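Also: PSI is a weighted mean of sequencing reads over stability bins, variants kept only with over 10 reads, mCherry proximal and sfGFP distal, peptide attached via GGGS linker.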
row,Sequence,protein stability index
1,SSPALPPQPPSH,0.723 ± 0.0054
2,LDLCTVIRFVGI,0.723 ± 0.029
3,YPPYPSHSSLHT,0.6987 ± 0.0062
4,PLSPPPPSPPFA,0.743 ± 0.013
5,GRVGRGGAVGEW,0.671 ± 0.022
6,PSKLNLSRKPEC,0.677 ± 0.018
7,AHWFMPVSCLLV,0.838 ± 0.2
8,YINIKKKKINKT,0.688 ± 0.039
9,SIDKINKLTPDV,0.648 ± 0.052
10,GVVGLEVLGRWG,0.687 ± 0.047
11,PPAVPSTPLSPP,0.685 ± 0.032
12,GPVFLPLFWAGV,0.6846 ± 0.0051
13,RARGQPTKDIAS,0.643 ± 0.018
14,VKSGSTALRVNS,0.607 ± 0.051
15,FPPRPLPFCSPA,0.643 ± 0.0046
16,PPLPSSPPSSPL,0.68 ± 0.013
17,GAVRGGSGDWGR,0.723 ± 0.0083
18,RNTSQNRIDEKL,0.657 ± 0.014
19,VFAWFSGGARLT,0.717 ± 0.0076
20,WKGEREKQGKEG,0.589 ± 0.084
21,PLSRPFSPSLPL,0.66 ± 0.028
22,SSLEGMRSGLCR,0.69 ± 0.045
23,KKKKKKKKKKKR,0.633 ± 0.009
24,SISSFLPRRLPF,0.662 ± 0.033
25,PRWYVSFRTDDW,0.709 ± 0.15

row,Sequence,protein stability index
1,SLRPPLRPPTVV,0.601 ± 0.017
2,GCSLTFAGLFCI,0.629 ± 0.01
3,PRFPLPLPPPSP,0.7356 ± 0.0037
4,SILRRFSPPPLL,0.75 ± 0.051
5,PPPLPPPSLVSF,0.6741 ± 0.0051
6,LEGEESISQMNE,0.664 ± 0.043
7,PLPPPGPLPSPP,0.736 ± 0.043
8,SLEALARDRFCT,0.724 ± 0.014
9,VPPHLLLSLSPP,0.635 ± 0.02
10,GCGCVVRVWSGV,0.6621 ± 0.0013
11,LSSHLHCVTLFT,0.606 ± 0.059
12,HNDYKGSQIDNG,0.573 ± 0.046
13,VESRVVGGCGDW,0.625 ± 0.03
14,ASTCLKFTPTIF,0.883 ± 0.1
15,GAMLAGRQGWGL,0.679 ± 0.018
16,PAPSPLPPPPSL,0.6978 ± 0.0057
17,GAGLGGGRGRRW,0.68617 ± 0.00065
18,RELLWFIFTGFC,0.622 ± 0.042
19,RGSSPRAVTVWM,0.804 ± 0.075
20,KSSEIKEKKTKK,0.7151 ± 0.0011
21,QRTAACGSQRNR,0.682 ± 0.025
22,HLSPPPLMPPCC,0.759 ± 0.067
23,PPAPPPPPLPSY,0.714 ± 0.052
24,RSPPTQGQTPTT,0.696 ± 0.028
25,WRQRLKTNNITT,0.733 ± 0.018

row,Sequence,protein stability index
1,GGKKRGVRMCGG,0.655 ± 0.013
2,GRSITTSCTTER,0.673 ± 0.036
3,VVLGLWGLCCGC,0.527 ± 0.029
4,TPWIRGRTHPGR,0.705 ± 0.016
5,GDNRSVSRKAEW,0.614 ± 0.047
6,PPGPPPPLPISP,0.7244 ± 0.0044
7,RLASGGSAFINL,0.78 ± 0.2
8,DRHWLELVGLWS,0.75 ± 0.049
9,GVLVAFLWGESV,0.593 ± 0.018
10,LVCKRQGQANFI,0.689 ± 0.06
11,HPTSHRPLPAAF,0.724 ± 0.0075
12,PLPFPSTPPPPD,0.691 ± 0.031
13,FPLDNIALQSFP,0.774 ± 0.099
14,KQSNRYPCIHRS,0.705 ± 0.048
15,YGCSRALGCMGG,0.596 ± 0.14
16,GGVGVGVGCGGR,0.6828 ± 0.0017
17,VGGSERVWVKSL,0.537 ± 0.043
18,LFPPRVSLPSHT,0.663 ± 0.13
19,KKKKRKGKRQPR,0.671 ± 0.041
20,VLSGPQVVWSES,0.679 ± 0.017
21,FNGANEDCDLGV,0.665 ± 0.12
22,EYRPPVPPPFPP,0.579 ± 0.033
23,AGRSCGRHEPPK,0.579 ± 0.098
24,FSSFVVVGCWPR,0.625 ± 0.027
25,LGGVRWNPGCRG,0.661 ± 0.047

row,Sequence,protein stability index
1,SSGTLSPLSPVP,0.655 ± 0.027
2,GSLSIVVCSFEF,0.542 ± 0.044
3,GWLGPGCVGRMQ,0.733 ± 0.068
4,LFCGALSTRLAR,0.751 ± 0.081
5,VGPGVLVLGVGA,0.68 ± 0.035
6,VVSIIQDITLIS,0.7094 ± 0.0034
7,LSHSHLYLFFHH,0.6957 ± 0.0027
8,SIVRWLTSSLIH,0.787 ± 0.17
9,SRRSNMRNMRTT,0.657 ± 0.081
10,VPGASSSLSSSP,0.667 ± 0.077
11,SQFWGCALFIEH,0.652 ± 0.018
12,YYPRGIYHNSMT,0.713 ± 0.033
13,GYYPVALDYKLR,0.708 ± 0.05
14,IFWGFSFRGGGC,0.656 ± 0.029
15,SVGGSRSGRGGQ,0.688 ± 0.011
16,VFLASFLVCPIS,0.662 ± 0.057
17,WSGGAGGGGRLG,0.645 ± 0.088
18,GLCVGVGLVWKL,0.65 ± 0.07
19,QCESVRLNFGGR,0.704 ± 0.021
20,LGGVLVGDWVGI,0.7125 ± 0.0042
21,APPSPRPSRPSP,0.64 ± 0.029
22,GLVRGRLVGLED,0.646 ± 0.056
23,FGRFCYELLCGT,0.541 ± 0.056
24,PPLPSLLGLLFP,0.6773 ± 0.0044
25,AGGWLRGWLGVG,0.673 ± 0.047

row,Sequence,protein stability index
1,DFCSVDLNLCIV,0.61 ± 0.011
2,PLPPPPPALPLP,0.683 ± 0.037
3,QKKKKKNTKKKL,0.701 ± 0.054
4,CPGGRKPRQTAG,0.679 ± 0.14
5,WVGGDINFWWGG,0.747 ± 0.12
6,CPGPPSLSPRPS,0.672 ± 0.029
7,HVKVGCGNGIVR,0.644 ± 0.014
8,FVGWGLGVGTHD,0.679 ± 0.0054
9,SHFHSRDARRSP,0.673 ± 0.0068
10,RKEAVTQTQKNT,0.672 ± 0.051
11,GLFDLLCHCCWL,0.702 ± 0.05
12,HLLSPPLPPSPA,0.728 ± 0.039
13,ADLAFAGGPYYG,0.69 ± 0.067
14,SRPFAILLCAEK,0.62 ± 0.015
15,CSKRTGRKSVTY,0.7299 ± 0.0063
16,DSTGFRQNGQTD,0.73 ± 0.015
17,RFRSMTGVIVSE,0.6772 ± 0.002
18,LFTLSGAPLALP,0.729 ± 0.015
19,SHTRPRPPLHLP,0.68 ± 0.038
20,PPPPPRPPYPIP,0.735 ± 0.011
21,RCGRVEKRIGRV,0.756 ± 0.086
22,ASNPGPLTPPQP,0.705 ± 0.0087
23,IAYGCCYKELII,0.63 ± 0.046
24,GWCTLASGLFTT,0.673 ± 0.1
25,WLVGEWPGRWGR,0.728 ± 0.037

row,Sequence,protein stability index
1,VGRGWSSGGGGD,0.682 ± 0.023
2,VGRSRNGAQSNR,0.65 ± 0.015
3,FLTSPFIITRMP,0.593 ± 0.071
4,NYKVRKQKVDRN,0.674 ± 0.062
5,ARSERVVPKMQS,0.732 ± 0.043
6,RLLAGLPLGGGN,0.656 ± 0.051
7,LWFWAVECGLGG,0.713 ± 0.32
8,RVSGYTHPLLSC,0.679 ± 0.079
9,PPARRPVPPLSC,0.7187 ± 0.0058
10,RPRVCFPHIAGT,0.777 ± 0.11
11,PLSFPTFVPLPI,0.663 ± 0.043
12,IQAVSRDYVELR,0.652 ± 0.031
13,PRHPLAPLPLPS,0.724 ± 0.026
14,GVGLSGVGGLGR,0.6439 ± 0.004
15,FSRRQLLCLPHP,0.677 ± 0.0083
16,IKKKKKEKGDST,0.713 ± 0.082
17,YFSQPLGPSPLL,0.812 ± 0.074
18,RGLVLWVVSGRG,0.6155 ± 0.0045
19,GFCWFRGVGSGG,0.683 ± 0.044
20,PPFPPRPLPPIP,0.693 ± 0.017
21,DRGSSRFTIGPK,0.676 ± 0.022
22,QRSFSLRLSAPV,0.681 ± 0.029
23,TEVWSGFARWGG,0.675 ± 0.046
24,RDALVNADKIGR,0.703 ± 0.061
25,RQLVNKKIKEKK,0.7258 ± 0.0051

row,Sequence,protein stability index
1,LISLSHLSANQM,0.665 ± 0.012
2,MVTWSDRVIKSW,0.733 ± 0.023
3,NKNKENMKRKTK,0.682 ± 0.039
4,ADQAPVLTVWLP,0.669 ± 0.023
5,SHKPDLTNVRFV,0.707 ± 0.044
6,FLWLRLLEAFWF,0.603 ± 0.032
7,PSSRRRLLPPPH,0.71 ± 0.12
8,REREKITRKRNT,0.69 ± 0.01
9,GRTNQKKEWIIR,0.718 ± 0.01
10,EESAHPCRREVR,0.58988 ± 3.9e-05
11,RVGHGHRSPTRV,0.677 ± 0.14
12,FSGLELRVGCGA,0.732 ± 0.086
13,LNHQSSVHLNTP,0.732 ± 0.034
14,GGFRREPWEILR,0.649 ± 0.0012
15,PLVLSHRLPLPP,0.703 ± 0.067
16,HGWACSRSPCAV,0.756 ± 0.048
17,CLHFSFFTFENF,0.67 ± 0.02
18,AVRGCGVGSGWR,0.713 ± 0.02
19,LGYSYHGVASRG,0.698 ± 0.013
20,RLGNPPPFSTLG,0.691 ± 0.075
21,PPRASPFPTPPP,0.579 ± 0.04
22,NTRKIEAVGSER,0.658 ± 0.024
23,GPRSLVEITITD,0.669 ± 0.029
24,KTINEKKKRIEQ,0.713 ± 0.055
25,PKSRSVTTSIPG,0.691 ± 0.042

row,Sequence,protein stability index
1,FVSRLWKIPTES,0.583 ± 0.034
2,MARIASAQTSLT,0.688 ± 0.016
3,YVGLSSRSFLSF,0.687 ± 0.033
4,TLDNEKKKKRNT,0.674 ± 0.022
5,TPASCHQFGYQH,0.695 ± 0.026
6,KGQGAYEGVGKE,0.663 ± 0.019
7,RKKEKKERKERK,0.66 ± 0.069
8,GGGGEDQSQGPP,0.69 ± 0.027
9,GEVAQDLGRDIL,0.7124 ± 0.0019
10,GVGVLGGGYMCL,0.647 ± 0.069
11,ERRSGGHCRKSG,0.685 ± 0.036
12,SLPDTSPSLHPP,0.59 ± 0.011
13,GPVLILLSNNEM,0.731 ± 0.061
14,SAPPSPPLPPPC,0.677 ± 0.067
15,ERPIRPQCVHRM,0.73 ± 0.015
16,GSRSPEARARFV,0.68748 ± 0.00064
17,FDFFLPFLCSSL,0.827 ± 0.2
18,CGTYFRLTRCAV,0.577 ± 0.043
19,MGIVEGIGASSL,0.662 ± 0.036
20,PPSTRPYRLFPL,0.682 ± 0.048
21,GVEVSVFFFHFL,0.576 ± 0.097
